Assay results from patent publication US20110105412A1.

Target: gp120 YU2 (HIV, type R5 isolate YU2) (UniProt P35961)
Experiment: SPR, indirect; rising concentrations of mCD4 mixed with unlinked HS12Lb, co-incubated with 40 nM gp120 YU2; readout: gp120 bound to the mAb 17b surface [bottom panel]

## miniCD4 peptide (mCD4)
  EC50 (read off the curve): 6 nM
